Source: paper PMC13022455, “Oligomerization-dependent and synergistic regulation of Cdc42 GTPase cycling by a GEF and a GAP” (EMBO Reports, 2026)
Changes are numbered by the printed parent chain. Names and notes keep the numbering of the source. Values belong to the binder of their own block, whether it stands above or below them.

Tests used:
[1] = target: Cdc24-DH3 (incl. mutation L339A, E340A) (S. cerevisiae) (UniProt P11433)
[2] = target: the molecule itself; test: SEC-MALS; single purified proteins; Superdex 200 Increase 10/300 GL, SEC buffer (50 mM Tris-HCl pH 7.5, 100 mM NaCl, 10 mM MgCl2, 1 mM 2-mercaptoethanol) with 0.02% sodium azide, 0.5 mL/min; samples 5.7–7.1 µM; fractions analysed by SDS-PAGE and anti-His western blot
[3] = target: T1, Cdc24 (S. cerevisiae) (UniProt P11433)
T1 sequence: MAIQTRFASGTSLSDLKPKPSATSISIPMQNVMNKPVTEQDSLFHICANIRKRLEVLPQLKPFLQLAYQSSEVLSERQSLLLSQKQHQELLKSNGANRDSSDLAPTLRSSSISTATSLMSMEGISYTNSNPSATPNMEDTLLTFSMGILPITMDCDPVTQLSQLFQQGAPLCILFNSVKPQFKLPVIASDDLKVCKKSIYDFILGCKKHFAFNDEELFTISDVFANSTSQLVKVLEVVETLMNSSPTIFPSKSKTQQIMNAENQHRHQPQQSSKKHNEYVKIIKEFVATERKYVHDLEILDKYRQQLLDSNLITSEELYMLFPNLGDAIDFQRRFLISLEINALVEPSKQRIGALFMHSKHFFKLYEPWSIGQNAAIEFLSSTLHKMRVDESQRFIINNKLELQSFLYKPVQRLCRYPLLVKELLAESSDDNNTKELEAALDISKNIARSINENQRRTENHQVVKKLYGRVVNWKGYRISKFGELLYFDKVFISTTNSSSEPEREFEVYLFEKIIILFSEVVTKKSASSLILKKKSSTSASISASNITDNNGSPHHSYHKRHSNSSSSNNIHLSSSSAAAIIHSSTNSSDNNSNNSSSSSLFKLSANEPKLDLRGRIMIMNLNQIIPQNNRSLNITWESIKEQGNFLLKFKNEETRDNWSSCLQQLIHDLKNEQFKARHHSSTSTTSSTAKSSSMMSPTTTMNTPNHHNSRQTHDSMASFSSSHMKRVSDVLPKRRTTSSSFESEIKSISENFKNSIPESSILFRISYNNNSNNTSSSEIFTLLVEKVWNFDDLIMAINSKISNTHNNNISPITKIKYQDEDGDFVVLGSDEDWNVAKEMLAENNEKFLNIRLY

rate k3,Cdc24-DH3 of Cdc42 GTPase cycling (GTPase-Glo assay) [1]: 0.702 µM^−2 h^−1
B1: Cdc24-DH3 (incl. mutation L339A, E340A) (enzyme)
chain: T1 sequence with L339A, E340A

interaction (synergy) rate k3,X1,X2 of Cdc42 GTPase cycling in Cdc42–Cdc24–Rga2 ((II)) mixtures (GTPase-Glo assay) [3]: 51.7 µM^−4 h^−1
interaction (synergy) rate k3,X1,X2 of Cdc42 GTPase cycling in Cdc42–Cdc24–Rga2(I) mixtures (GTPase-Glo assay) [3]: 87 µM^−4 h^−1
B2: His-Rga2 (Rga2 tagged with an N-terminal 6His purification tag) (enzyme, S. cerevisiae, UniProt Q06407 1-1009, looked up)
chain: MSADPINDQSSLCVRCNKSIASSQVYELESKKWHDQCFTCYKCDKKLNADSDFLVLDIGTLICYDCSDKCTNCGDKIDDTAIILPSSNEAYCSNCFRCCRCSNRIKNLKYAKTKRGLCCMDCHEKLLRKKQLLLENQTKNSSKEDFPIKLPERSVKRPLSPTRINGKSDVSTNNTAISKNLVSSNEDQQLTPQVLVSQERDESSLNDNNDNDNSKDREETSSHARTVSIDDILNSTLEHDSNSIEEQSLVDNEDYINKMGEDVTYRLLKPQRANRDSIVVKDPRIPNSNSNANRFFSIYDKEETDKDDTDNKENEIIVNTPRNSTDKITSPLNSPMAVQMNEEVEPPHGLALTLSEATKENNKSSQGIQTSTSKSMNHVSPITRTDTVEMKTSTSSSTLRLSDNGSFSRPQTADNLLPHKKVAPSPNKKLSRSFSLKSKNFVHNLKSKTSEMLDPKHPHHSTSIQESDTHSGWGVSSTHTNIRKSKAKKNPVSRGQSDSTIYNTLPQHGNFTVPEFNHKKAQSSLGSISKKQNSNDTATNRRINGSFTSSSSGHHIAMFRTPPLESGPLFKRPSLSSESAHHRSSSLQTSRSTNALLEDDSTKVDATDESATSLEKDFYFTELTLRKLKLDVRELEGTKKKLLQDVENLRLAKERLLNDVDNLTREKDKQSASSRESLEQKENIATSITVKSPSSNSDRKGSISNASPKPRFWKIFSSAKDHQVGDLESQQRSPNSSSGGTTNIAQKEISSPKLIRVHDELPSPGKVPLSPSPKRLDYTPDGSHLYGSSLQARCAYEKSTVPIIIRCCIDRIEKDDIGLNMEGLYRKSGSQTLVEEIENEFAQNNSLHSDTLSPKLNALLNQDIHAVASVLKRYLRKLPDPVLSFSIYDALIDLVRNNQLIERLPLNNDKFLDSPQKVTIYEMVLKSLLEIFKILPVEHQEVLKVLAAHIGKVRRCSERNLMNLHNLSLVFAPSLIHDFDGEKDIVDMKERNYIVEFILGNYRDIFKQA
notes: plasmid pRV014; Found only as higher-order oligomers in SEC-MALS; also called Rga2(I); pRV014; source: E. coli BL21 DE3 pLysS, purified (HisTrap Excel, SEC Sephacryl S-300); not shown: His6, N-terminal, kept
binding result [2]: binds

B3: GAP domain (aa 797–981 from Rga2) (domain or fragment, S. cerevisiae, UniProt Q06407 797-981, looked up)
chain: EKSTVPIIIRCCIDRIEKDDIGLNMEGLYRKSGSQTLVEEIENEFAQNNSLHSDTLSPKLNALLNQDIHAVASVLKRYLRKLPDPVLSFSIYDALIDLVRNNQLIERLPLNNDKFLDSPQKVTIYEMVLKSLLEIFKILPVEHQEVLKVLAAHIGKVRRCSERNLMNLHNLSLVFAPSLIHDFDG
notes: Rga2 GAP domain, S. cerevisiae, aa 797–981 (Smith et al, 2002); plasmid pRV138; also called Rga2's GAP domain; pRV138; source: E. coli BL21 DE3 pLysS, purified (HisTrap Excel, SEC Sephacryl S-300)
binding result [2]: binds
